Source: patent US20250297215A1, “METHOD FOR PRODUCING MILK LIKE PRODUCTS” (SOCIETE DES PRODUITS NESTLE S.A., priority 2021, published 2025)

Legend:
[1] = tested on: iPS-derived mammary-gland cells; assay: LC-MS/MS targeted proteomic analysis of osteopontin protein secretion; type: cell-based, human; settings: also detected with control differentiation method
Text: Human osteopontin peptides—GDSVVYGLR and -YPDAVATWLNPDPSQK were specifically detected in the cell culture supernatant by LC-MS/MS (FIG. 10).
Osteopontin protein secretion was detected in the media of cultures of iPS-derived mammary-gland cells using control differentiation method, or with bone morphogenetic protein 4 (BMP4), retinoic acid (RA) and in the combination of the two factors.

[2] = tested on: human-induced pluripotent stem cell (hiPSC) line 603; assay: Flow cytometry quantification of mammary gland progenitor markers after BMP4 treatment, 3D-organoid setting; type: cell-based; settings: 20 ng/ml BMP4, day 0 to day 3, flow cytometry
Experimental: (§1) Methods: The human-induced pluripotent stem cell (hiPSC) line 603 was purchased from Fujifilm Cellular Dynamics, Inc (FCDI) and used for the 3D-differentiaion of mammary gland progenitors. Briefly, 5.5 million dissociated iPSCs were plated in the 6 well-plates (ultra-low attachment) containing 4.5 mL aggregation media using a planar shaker platform (set at 95 RPM). BMP4 (314-BP-050, Bio-Techne AG) at different concentrations was added to the culture media between day 0 and day 3.

[3] = tested on: human-induced pluripotent stem cell (hiPSC) line 603; assay: Nanostring RNA expression of lineage markers after BMP4 treatment, 3D-organoid setting; type: cell-based
Experimental: as §1
Results: iPSC cells were tested with different concentrations of BMP4 to induce non-neural ectodermal differentiation (FIG. 6a, b). […] Expression of human TFAP2A and TFAP2C (AP2 Gamma) as predominant non-neural ectodermal markers were increased at day 10 of differentiation using Nanostring analysis compared to the control sample (FIG. 6g-h). Moreover, expression levels of human specific neural ectoderm markers, such as paired box gene 6 (PAX6), orthodenticle homeobox 2 (OTX2) and SRY-box transcription factor 11 (SOX11) were decreased during differentiation (FIG. 6i-k).

iPSC cells = assay: RNA expression of ESRRA, KRT14 and MUC1 at end-stage of 3D-mammary gland differentiation; type: cell-based, human; settings: day 30, 33 and 35, compared to the control sample
Experimental: The effect of BMP4 at the end-stage of 3D-mammary gland differentiation of iPSC cells was assessed using estrogen related receptor alpha (ESRRA), Keratin 14 (KRT14) and MUC1 for their expression profiles.

[4] = tested on: iPSCs derived mammary gland organoids; assay: Flow cytometry of progenitor markers, BMP4 and RA single or combined, 42 days and 31 days protocols; type: cell-based, human; settings: 20 ng/ml BMP4, 1 μM RA, single or combination, compared to the control condition
Text: In order to generate milk bioactives that closely resemble those found in human breast milk, different methods using bone morphogenetic protein 4 (BMP4) and retinoic acid (RA) in 42 days and 31 days as a shortened time-course protocol were established in a 3D-platform using iPSCs derived mammary gland organoids as a biomimetic model of the human mammary gland (FIG. 9).

B1: BMP4: bone morphogenetic protein 4 (314-BP-050, Bio-Techne AG), added to the culture media (protein, UniProt P12644 293-408, looked up)
Bone morphogenetic protein 4: SPKHHSQRARKKNKNCRRHSLYVDFSDVGWNDWIVAPPGYQAFYCHGDCPFPLADHLNSTNHAIVQTLVNSVNSSIPKACCVPTELSAISMLYLDEYDKVVLKNYQEMVVEGCGCR
- osteopontin protein secretion in culture media [1]: detected
- expression of mammary gland progenitor markers EpCAM (CD326), CD49f, MUC1 (CD227) and GATA3 [2]: significantly induced
- expression of luminal marker KRT18 and osteopontin (OPN) ([3]; RNA expression level): can induce the expression
- expression of human TFAP2A and TFAP2C (non-neural ectodermal markers) ([3]; day 10 of differentiation, compared to the control sample): increased
- expression levels of neural ectoderm markers PAX6, OTX2 and SOX11 ([3]; during differentiation): decreased
- RNA expression levels of ESRRA, KRT14 and MUC1 (iPSC cells): increased
- expression of mammary gland progenitor markers EpCAM, CD49f, MUC1 and GATA3 (induced or maintained) [4]: can induce the expression
